Source: patent US20100311648A1 (AstraZeneca / MedImmune, published 2010)
Positions of bridges follow the written chain, without caps; N, C: chain ends. Non-standard residues stand in square brackets, D forms with d. dPhe(3,4-F2) = N[C@H](Cc1ccc(F)c(F)c1)C(=O)O; dPhe(4-CN) = N#Cc1ccc(C[C@@H](N)C(=O)O)cc1; dPhe(2-Cl) = N[C@H](Cc1ccccc1Cl)C(=O)O; dPhe(4-F) = N[C@H](Cc1ccc(F)cc1)C(=O)O; dPhe(2-F) = N[C@H](Cc1ccccc1F)C(=O)O; Orn = NCCC[C@H](N)C(=O)O

B1: Ac-Arg-cyclo(Glu-Asp-D-Phe(4-CN)-Arg-Trp-Orn)-OH (peptide)
peptide: Ac-RED[dPhe(4-CN)]RW[Orn]-OH
modifications: lactam 2-7
SMILES: CC(=O)N[C@@H](CCCNC(=N)N)C(=O)N[C@H]1CCC(=O)NCCC[C@@H](C(=O)O)NC(=O)[C@H](Cc2c[nH]c3ccccc23)NC(=O)[C@H](CCCNC(=N)N)NC(=O)[C@@H](Cc2ccc(C#N)cc2)NC(=O)[C@H](CC(=O)O)NC1=O
notes: also called No. 107
B2: Ac-Arg-cyclo(Glu-Asn-D-Phe(2-Cl)-Arg-Trp-Orn)-NH2 (peptide)
peptide: Ac-REN[dPhe(2-Cl)]RW[Orn]-NH2
modifications: lactam 2-7
SMILES: CC(=O)N[C@@H](CCCNC(=N)N)C(=O)N[C@H]1CCC(=O)NCCC[C@@H](C(N)=O)NC(=O)[C@H](Cc2c[nH]c3ccccc23)NC(=O)[C@H](CCCNC(=N)N)NC(=O)[C@@H](Cc2ccccc2Cl)NC(=O)[C@H](CC(N)=O)NC1=O
notes: also called No. 84
B3: Ac-Arg-cyclo(Glu-Asp-D-Phe(4-CN)-Arg-Trp-Orn)-NH2 (peptide)
peptide: Ac-RED[dPhe(4-CN)]RW[Orn]-NH2
modifications: lactam 2-7
SMILES: CC(=O)N[C@@H](CCCNC(=N)N)C(=O)N[C@H]1CCC(=O)NCCC[C@@H](C(N)=O)NC(=O)[C@H](Cc2c[nH]c3ccccc23)NC(=O)[C@H](CCCNC(=N)N)NC(=O)[C@@H](Cc2ccc(C#N)cc2)NC(=O)[C@H](CC(=O)O)NC1=O
notes: also called No. 106
B4: Ac-Arg-cyclo(Glu-Ala-D-Phe(4-CN)-Arg-Trp-Orn)-NH2 (peptide)
peptide: Ac-REA[dPhe(4-CN)]RW[Orn]-NH2
modifications: lactam 2-7
SMILES: CC(=O)N[C@@H](CCCNC(=N)N)C(=O)N[C@H]1CCC(=O)NCCC[C@@H](C(N)=O)NC(=O)[C@H](Cc2c[nH]c3ccccc23)NC(=O)[C@H](CCCNC(=N)N)NC(=O)[C@@H](Cc2ccc(C#N)cc2)NC(=O)[C@H](C)NC1=O
notes: also called No. 41

Target: T1, human melanocortin-4 receptor (human, UniProt P32245 1-332)
Assay: cell-based or functional assay

T1 sequence (P32245 whole entry): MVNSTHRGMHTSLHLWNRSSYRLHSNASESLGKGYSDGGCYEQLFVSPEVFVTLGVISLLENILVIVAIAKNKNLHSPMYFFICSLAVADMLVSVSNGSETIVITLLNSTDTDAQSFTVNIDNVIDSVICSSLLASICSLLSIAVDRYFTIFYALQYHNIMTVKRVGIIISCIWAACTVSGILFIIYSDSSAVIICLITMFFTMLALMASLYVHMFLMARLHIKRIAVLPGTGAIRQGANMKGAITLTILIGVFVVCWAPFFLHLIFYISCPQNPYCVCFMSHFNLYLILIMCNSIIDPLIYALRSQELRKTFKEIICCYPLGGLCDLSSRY

How did the “EC50, cAMP, 0.1 ng/mL Doxycycline” value turn out when Ac-REQ[dPhe(2-Cl)]RW[Orn]-NH2 (lactam 2-7, also called No. 34) [Ac-Arg-cyclo(Glu-Gln-D-Phe(2-Cl)-Arg-Trp-Orn)-NH2] was run?
The value was 1 nM.

And the “EC50, cAMP, 10 ng/mL Doxycycline” value?
Its value is 0.137 nM.

What about the “Intrinsic Activity, cAMP, 0.1 ng/mL Doxycycline” value of the same binder?
Its value is 79%.

And the “Intrinsic Activity, cAMP, 10 ng/mL Doxycycline” value?
Its value is 97%.

How did the “Intrinsic Activity, cAMP, 0.1 ng/mL Doxycycline” value turn out when B1 was run?
The value was 4%.

What about the “Intrinsic Activity, cAMP, 10 ng/mL Doxycycline” value of the same binder?
The value was 64%.

For B2, which “EC50, cAMP, 0.1 ng/mL Doxycycline” value is on record?
Its value is 0.633 nM.

And the “EC50, cAMP, 10 ng/mL Doxycycline” value?
The value was 0.09 nM.

What about the “Intrinsic Activity, cAMP, 0.1 ng/mL Doxycycline” value of the same binder?
The value was 78%.

And the “Intrinsic Activity, cAMP, 10 ng/mL Doxycycline” value?
The value was 97%.

For Ac-RES[dPhe(2-F)]RW[Orn]-NH2 (lactam 2-7, also called No. 58) [Ac-Arg-cyclo(Glu-Ser-D-Phe(2-F)-Arg-Trp-Orn)-NH2], which “EC50, cAMP, 0.1 ng/mL Doxycycline” value is on record?
The value was 5 nM.

What about the “EC50, cAMP, 10 ng/mL Doxycycline” value of the same binder?
The value was 0.25 nM.

What about the “Intrinsic Activity, cAMP, 0.1 ng/mL Doxycycline” value of the same binder?
The value was 67%.

What about the “Intrinsic Activity, cAMP, 10 ng/mL Doxycycline” value of the same binder?
Its value is 100%.

Which “EC50, cAMP, 0.1 ng/mL Doxycycline” value does the source give for Ac-REN[dPhe(4-CN)]RW[Orn]-NH2 (lactam 2-7; also: acetate salt, acetate salt form; also called Ex 43) [Ac-Arg-cyclo(Glu-Asn-D-Phe(4-CN)-Arg-Trp-Orn)-NH2] here?
The value was 1 nM.

What about the “EC50, cAMP, 10 ng/mL Doxycycline” value of the same binder?
The value was 0.177 nM.

What about the “Intrinsic Activity, cAMP, 0.1 ng/mL Doxycycline” value of the same binder?
Its value is 43%.

What about the “Intrinsic Activity, cAMP, 10 ng/mL Doxycycline” value of the same binder?
The value was 100%.

Which “EC50, cAMP, 10 ng/mL Doxycycline” value does the source give for B3 here?
The value was 113 nM.

What about the “Intrinsic Activity, cAMP, 0.1 ng/mL Doxycycline” value of the same binder?
The value was 3%.

And the “Intrinsic Activity, cAMP, 10 ng/mL Doxycycline” value?
The value was 77%.

With Ac-REN[dPhe(4-F)]RW[Orn]-NH2 (lactam 2-7, also called No. 69) [Ac-Arg-cyclo(Glu-Asn-D-Phe(4-F)-Arg-Trp-Orn)-NH2] as the binder, how does the “EC50, cAMP, 0.1 ng/mL Doxycycline” value read?
The value was 0.25 nM.

And the “EC50, cAMP, 10 ng/mL Doxycycline” value?
Its value is 0.095 nM.

What about the “Intrinsic Activity, cAMP, 0.1 ng/mL Doxycycline” value of the same binder?
The value was 76%.

And the “Intrinsic Activity, cAMP, 10 ng/mL Doxycycline” value?
The value was 92%.

Which results are given for B4?
EC50, cAMP, 10 ng/mL Doxycycline: 0.8 nM; Intrinsic Activity, cAMP, 0.1 ng/mL Doxycycline: 5%; Intrinsic Activity, cAMP, 10 ng/mL Doxycycline: 84%

What does the source list for Ac-R[Orn]N[dPhe(3,4-F2)]RWE-NH2 (lactam 2-7, also called No. 75) [Ac-Arg-cyclo(Orn-Asn-D-Phe(3,4-diF)-Arg-Trp-Glu)-NH2]?
EC50, cAMP, 0.1 ng/mL Doxycycline: 0.65 nM; EC50, cAMP, 10 ng/mL Doxycycline: 0.125 nM; Intrinsic Activity, cAMP, 0.1 ng/mL Doxycycline: 43%

With XDQXRWK (N-terminal Ac; D-Arg 1; D-Phe(3,4-diF) 4; lactam Asp 2-Lys 7; C-terminal NH2, also called No. 78) [Ac-D-Arg-cyclo(Asp-Gln-D-Phe(3,4-diF)-Arg-Trp-Lys)-NH2] as the binder, how does the “EC50, cAMP, 0.1 ng/mL Doxycycline” value read?
Its value is 2 nM.

What about the “EC50, cAMP, 10 ng/mL Doxycycline” value of the same binder?
The value was 0.2 nM.

What about the “Intrinsic Activity, cAMP, 0.1 ng/mL Doxycycline” value of the same binder?
Its value is 48%.

And the “Intrinsic Activity, cAMP, 10 ng/mL Doxycycline” value?
Its value is 89%.

XDQXRWK (N-terminal Ac; D-Arg 1; D-Phe(2-F) 4; lactam Asp 2-Lys 7; C-terminal NH2, also called No. 82) [Ac-D-Arg-cyclo(Asp-Gln-D-Phe(2-F)-Arg-Trp-Lys)-NH2] was tested. Which “EC50, cAMP, 0.1 ng/mL Doxycycline” value did it give?
Its value is 2 nM.

And the “EC50, cAMP, 10 ng/mL Doxycycline” value?
Its value is 0.095 nM.

And the “Intrinsic Activity, cAMP, 0.1 ng/mL Doxycycline” value?
Its value is 79%.

And the “Intrinsic Activity, cAMP, 10 ng/mL Doxycycline” value?
The value was 95%.

How did the “EC50, cAMP, 0.1 ng/mL Doxycycline” value turn out when Ac-R[Orn]N[dPhe(2-Cl)]RWE-NH2 (lactam 2-7) [Ac-Arg-cyclo(Orn-Asn-D-Phe(2-Cl)-Arg-Trp-Glu)-NH2] was run?
The value was 0.72 nM.

What about the “EC50, cAMP, 10 ng/mL Doxycycline” value of the same binder?
The value was 0.065 nM.

And the “Intrinsic Activity, cAMP, 10 ng/mL Doxycycline” value?
Its value is 100%.

Target: T2, melanocortin-1 receptor (mouse (B-16 melanoma cells); in some …, UniProt Q01727 1-315)
T2 construct: whole, on cells; membrane homogenates; also called MC1-R; mouse B16 MC1-R
Assay: [I125]-NDP-α-MSH competition, MC1-R membranes
Procedure: (§1) A competitive inhibition binding assay was performed for exemplified peptides according to the invention using membrane homogenates prepared from HEK-293 cells that express recombinant hMC4-R, hMC3-R, or hMC5-R, and from B-16 mouse melanoma cells (containing endogenous MC1-R). In some instances, HEK-293 cells that express recombinant hMC1-R were employed. Assays were performed in 96 well GF/B Millipore multiscreen filtration plates (MAFB NOB10) pre-coated with 0.5% bovine serum albumin (Fraction V). […] After incubation for 60 minutes at 37° C., the assay mixture was filtered and the membranes washed three times with ice-cold buffer. Filters were dried and counted in a gamma counter for bound radioactivity. […] Each assay was conducted in triplicate and the actual mean values are described, with results less than 0% reported as 0%. Ki values for test peptides of the present invention were determined using Graph-Pad Prism® curve-fitting software.

T2 sequence (Q01727 whole entry): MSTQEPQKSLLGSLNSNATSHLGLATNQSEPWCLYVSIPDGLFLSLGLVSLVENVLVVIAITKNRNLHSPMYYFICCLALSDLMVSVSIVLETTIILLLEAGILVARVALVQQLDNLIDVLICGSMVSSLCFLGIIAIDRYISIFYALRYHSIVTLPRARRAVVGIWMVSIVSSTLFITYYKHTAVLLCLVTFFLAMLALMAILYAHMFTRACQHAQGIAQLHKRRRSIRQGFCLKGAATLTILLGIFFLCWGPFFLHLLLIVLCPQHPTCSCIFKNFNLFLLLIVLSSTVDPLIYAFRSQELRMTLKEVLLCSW

For Ac-REQ[dPhe(2-Cl)]RW[Orn]-NH2 (lactam 2-7, also called No. 34) [Ac-Arg-cyclo(Glu-Gln-D-Phe(2-Cl)-Arg-Trp-Orn)-NH2], which Ki is on record?
The Ki was 128 nM.

Which Ki does the source give for B1 here?
Its Ki is 10000 nM.

With B2 as the binder, how does the Ki read?
The Ki was 245 nM.

Ac-RES[dPhe(2-F)]RW[Orn]-NH2 (lactam 2-7, also called No. 58) [Ac-Arg-cyclo(Glu-Ser-D-Phe(2-F)-Arg-Trp-Orn)-NH2] was tested. Which Ki did it give?
The Ki was 138 nM.

With Ac-REN[dPhe(4-CN)]RW[Orn]-NH2 (lactam 2-7; also: acetate salt, acetate salt form; also called Ex 43) [Ac-Arg-cyclo(Glu-Asn-D-Phe(4-CN)-Arg-Trp-Orn)-NH2] as the binder, how does the Ki read?
The Ki was 870 nM.

How did the Ki turn out when B3 was run?
The Ki was 10000 nM.

Which Ki does the source give for Ac-REN[dPhe(4-F)]RW[Orn]-NH2 (lactam 2-7, also called No. 69) [Ac-Arg-cyclo(Glu-Asn-D-Phe(4-F)-Arg-Trp-Orn)-NH2] here?
Its Ki is 150 nM.

How did the Ki turn out when B4 was run?
Its Ki is 4300 nM.

Target: T1, human melanocortin-4 receptor
Assay: [I125]-NDP-α-MSH competition, hMC4-R HEK-293 membranes
Procedure: as §1

With Ac-REQ[dPhe(2-Cl)]RW[Orn]-NH2 (lactam 2-7, also called No. 34) [Ac-Arg-cyclo(Glu-Gln-D-Phe(2-Cl)-Arg-Trp-Orn)-NH2] as the binder, how does the Ki read?
The Ki was 7 nM.

Which Ki does the source give for B1 here?
Its Ki is 6460 nM.

Which Ki does the source give for B2 here?
The Ki was 7 nM.

Ac-REN[dPhe(4-CN)]RW[Orn]-NH2 (lactam 2-7; also: acetate salt, acetate salt form; also called Ex 43) [Ac-Arg-cyclo(Glu-Asn-D-Phe(4-CN)-Arg-Trp-Orn)-NH2] was tested. Which Ki did it give?
Its Ki is 5 nM.

B3 was tested. Which Ki did it give?
The Ki was 647 nM.

Which Ki does the source give for Ac-REN[dPhe(4-F)]RW[Orn]-NH2 (lactam 2-7, also called No. 69) [Ac-Arg-cyclo(Glu-Asn-D-Phe(4-F)-Arg-Trp-Orn)-NH2] here?
The Ki was 3 nM.

For B4, which Ki is on record?
The Ki was 3 nM.

How did the Ki turn out when Ac-R[Orn]N[dPhe(3,4-F2)]RWE-NH2 (lactam 2-7, also called No. 75) [Ac-Arg-cyclo(Orn-Asn-D-Phe(3,4-diF)-Arg-Trp-Glu)-NH2] was run?
The Ki was 3 nM.

How did the Ki turn out when XDQXRWK (N-terminal Ac; D-Arg 1; D-Phe(3,4-diF) 4; lactam Asp 2-Lys 7; C-terminal NH2, also called No. 78) [Ac-D-Arg-cyclo(Asp-Gln-D-Phe(3,4-diF)-Arg-Trp-Lys)-NH2] was run?
Its Ki is 8 nM.

How did the Ki turn out when XDQXRWK (N-terminal Ac; D-Arg 1; D-Phe(2-F) 4; lactam Asp 2-Lys 7; C-terminal NH2, also called No. 82) [Ac-D-Arg-cyclo(Asp-Gln-D-Phe(2-F)-Arg-Trp-Lys)-NH2] was run?
Its Ki is 10 nM.

How did the Ki turn out when Ac-R[Orn]N[dPhe(2-Cl)]RWE-NH2 (lactam 2-7) [Ac-Arg-cyclo(Orn-Asn-D-Phe(2-Cl)-Arg-Trp-Glu)-NH2] was run?
Its Ki is 7 nM.
